Test [1] concerns the target T1, human BMP5 (human, UniProt P22003 317-454, limits assumed).
T1 sequence: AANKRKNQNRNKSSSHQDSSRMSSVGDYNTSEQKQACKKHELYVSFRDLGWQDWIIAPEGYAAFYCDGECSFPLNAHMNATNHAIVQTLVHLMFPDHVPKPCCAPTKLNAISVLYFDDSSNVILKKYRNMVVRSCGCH
The test is described as follows: specificity ELISA, coated antigen, IgG 0.2 uM. How it is done:
(§1) After washing the plates three times with 100 uL TBST, each antigen was incubated with 40 uL of purified Fab or IgG samples at a concentration of 1 uM and 0.2 uM respectively (in PBST buffer).
(§2) After 2 h incubation at RT, the plates were again washed three times and bound Fabs/IgGs detected by adding 40 uL of a 1:5000 dilution of secondary AP-conjugated anti-human IgG F(ab2) antibody. After 1 h at RT, the signal was developed by adding 40 uL AttoPhos substrate according to the manufacturer's protocol and the plates were analyzed immediately using an excitation wavelength of 430 nm and an emission wavelength of 535 nm with an ELISA plate reader.

The target in test [2] is T2, human BMP6 (human, UniProt P22004 382-513, limits assumed).
T2 sequence: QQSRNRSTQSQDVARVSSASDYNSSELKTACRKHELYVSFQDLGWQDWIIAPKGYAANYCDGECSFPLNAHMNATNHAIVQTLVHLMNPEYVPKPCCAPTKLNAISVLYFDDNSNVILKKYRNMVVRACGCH
The test is described as follows: specificity ELISA, coated antigen, IgG 0.2 uM. How it is done:
as §1, §2

For test [3], the target named is T3, human BMP7 (human, UniProt P18075 293-431).
T3 sequence: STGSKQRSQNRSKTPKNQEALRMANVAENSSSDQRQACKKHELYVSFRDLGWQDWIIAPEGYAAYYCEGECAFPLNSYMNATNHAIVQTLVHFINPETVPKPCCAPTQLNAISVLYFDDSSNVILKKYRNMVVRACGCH
The test is described as follows: specificity ELISA, coated antigen, IgG 0.2 uM. As to the method:
as §1, §2

Test [4] concerns the target T4, Bovine serum albumin (bovine, UniProt P02769 25-607).
T4 construct: unrelated control antigen in the specificity ELISA; also called BSA
The test is described as follows: specificity ELISA, coated antigen, IgG 0.2 uM. As to the method:
as §1, §2

Test [5] concerns the target T5, mouse BMP6 (mouse, UniProt P20722 372-510, limits assumed).
T5 construct: also called mBMP6; mBMP6_RD
T5 sequence (looked up): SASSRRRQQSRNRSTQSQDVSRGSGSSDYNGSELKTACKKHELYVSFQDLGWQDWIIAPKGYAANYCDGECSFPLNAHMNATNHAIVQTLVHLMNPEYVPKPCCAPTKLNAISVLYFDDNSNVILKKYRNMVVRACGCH
The test is described as follows: specificity ELISA, coated antigen, IgG 0.2 uM. As to the method:
as §1, §2

Test [6] addresses 384 purified extracellular or secretory proteins (Protagen UNIchip). The test is described as follows: Protagen UNIchip protein chip with 384 purified extracellular or secretory proteins, purified hIgG1.
For test [7], the target named is T2, human BMP6. The test is described as follows: Biacore.
Test [8] deals with T2, human BMP6. The test is described as follows: method not stated in the table (Table 7 names Biacore).
Test [9] concerns the target T2, human BMP6. The test is described as follows: cell-based or functional assay.
Test [10] has as its target T2, human BMP6. The test is described as follows: cell-based or functional assay. This is another data set of the same source.
For test [11], the target named is T3, human BMP7. The test is described as follows: cell-based or functional assay.
Test [12] addresses T6, human BMP2 (human, UniProt P12643 283-396). The test is described as follows: cell-based or functional assay.
Test [13] has as its target T2, human BMP6. The test is described as follows: cell-based or functional assay. This is another data set of the same source.
For test [14], the target named is T2, human BMP6. The test is described as follows: cell-based or functional assay. The source holds these as a separate data set.
Test [15] deals with T2, human BMP6. The test is described as follows: cell-based or functional assay. The source holds these as a separate data set.
The target in test [16] is T3, human BMP7. The test is described as follows: cell-based or functional assay. The source holds these as a separate data set.
The target in test [17] is T6, human BMP2. The test is described as follows: cell-based or functional assay. This is another data set of the same source.
Test [18] addresses T4, Bovine serum albumin. The test is described as follows: ELISA on coated antigen, detection with anti-Fab-AP, fluorescence signal intensity.
For test [19], the target named is T6, human BMP2. The test is described as follows: cell-based or functional assay. This is another data set of the same source.
Test [20] addresses T2, human BMP6. The test is described as follows: ELISA binding assay; reference human BMP7.
The target in test [21] is T1, human BMP5. The test is described as follows: cell-based or functional assay.
Test [22] deals with T1, human BMP5. The test is described as follows: cell-based or functional assay. The source holds these as a separate data set.

Like-named read-outs stand apart in the source and are kept apart here. A value given as a limit tells only on which side of the number the result lay.

T6 sequence (P12643 283-396 limits assumed): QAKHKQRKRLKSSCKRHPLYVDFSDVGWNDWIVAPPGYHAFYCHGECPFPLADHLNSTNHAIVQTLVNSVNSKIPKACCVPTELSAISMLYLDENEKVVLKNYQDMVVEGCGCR
T4 sequence (P02769 25-607 limits assumed): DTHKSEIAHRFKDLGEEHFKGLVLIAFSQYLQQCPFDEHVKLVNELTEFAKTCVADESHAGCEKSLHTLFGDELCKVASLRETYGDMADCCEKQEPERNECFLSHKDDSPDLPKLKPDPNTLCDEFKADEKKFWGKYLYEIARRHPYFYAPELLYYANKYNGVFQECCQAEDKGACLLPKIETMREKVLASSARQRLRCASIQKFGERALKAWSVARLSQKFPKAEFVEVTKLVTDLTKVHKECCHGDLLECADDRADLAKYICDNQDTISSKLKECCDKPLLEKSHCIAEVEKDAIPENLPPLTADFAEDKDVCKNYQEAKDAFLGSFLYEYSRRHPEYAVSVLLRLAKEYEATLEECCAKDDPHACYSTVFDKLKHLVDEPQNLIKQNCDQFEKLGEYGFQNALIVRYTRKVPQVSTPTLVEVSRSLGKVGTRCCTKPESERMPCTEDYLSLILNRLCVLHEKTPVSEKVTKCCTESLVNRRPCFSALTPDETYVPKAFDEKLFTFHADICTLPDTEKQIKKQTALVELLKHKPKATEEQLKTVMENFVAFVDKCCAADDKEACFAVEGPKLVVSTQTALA

For the molecule Control IgG (antibody), the Signal over background in test [1] worked out at 4; in test [2], 61; in [3] it was 14; in test [4] it was 1; in [5] it was 18.

B1: Antibody 5 (antibody, human IgG1, lambda, V domains shown)
VH: QVQLVESGGGLVKPGGSLRLSCAASGFTFSSYVVHWVRQAPGKGLEWVGRIKRESSSYTTMYAAPVKGRFTISRDDSKNTLYLQMNSLKTEDTAVYYCARVERSKSGFDNWGQGTLVTVSS
VL: QSVLTQPPSVSGAPGQRVTISCTGSSSNIGAGYSVHWYQQLPGTAPKLLIYGQSERPSGVPDRFSGSKSGTSASLAITGLQAEDEADYYCQSWDSSQTLVVFGGGTKLTVLG
notes: germlined clone of NOV0787 (HCDR2-matured NOV0442_VL[Y49,G50,N51Q]); human IgG1; lead antibody; also called NOV0951; NOV951
In the case of B1, the off-target hits in [6] was less than 10 hits. The figures for the dissociation constant (Kd) in test [7] and in test [8] were roughly 0.1 nM and 0.1 nM, respectively. The Signal over background in test [2] is 65; in [3], 8; in test [4] it was 1; in [5] it was 24. Also, in [9], the “IC50 (read off the curve); BMP6-induced BRE-luc reporter activity in HEP3B cells” value (“IC50 (read off the curve)” for short) was roughly 0.5 nM. Besides, the “BRE-luc reporter IC50 in Hep3B” value in test [10] came out at 0.4 nM. Moreover, the “selectivity window of BMP6 over this BMP (BRE-luc reporter)” value in [11] and in test [12] was no less than 500 fold throughout. In addition, the “IC50(ug/ml) BMP6 reporter” value in test [13] is 0.06 µg/mL. Moreover, the “BRE-Luc RGA IC50” value in test [14] turned out to be 0.26 nM. Besides, the “RGA selectivity, hBMP6 over hBMP7” value in test [14] was roughly 1000 fold. The “RGA IC50” value is 0.04 µg/mL in [15], 25 µg/mL in test [16] and greater than 25 µg/mL in [17]. The RGA max in test [15] is 0.9; in [16] it was 1; in test [17], 1. Further, the figures for the RGA min in test [15], in [16] and in [17] were 0.02, 0.5 and 0.9, respectively.

B2: Antibody 7 (antibody, human IgG1, lambda, V domains shown)
VH: QVQLVESGGGLVKPGGSLRLSCAASGFTFSSYVVHWVRQAPGKGLEWVGRIRLETHGYAAEYAASVKGRFTISRDDSKNTLYLQMNSLKTEDTAVYYCARVERSKSGFDNWGQGTLVTVSS
VL: QSVLTQPPSVSGAPGQRVTISCTGSSSNIGAGYSVHWYQQLPGTAPKLLIYGQSERPSGVPDRFSGSKSGTSASLAITGLQAEDEADYYCQSWDSSQTLVVFGGGTKLTVLG
notes: germlined clone of NOV0806 (HCDR2-matured NOV0442_VL[Y49,G50,N51Q]); human IgG1; final lead; also called NOV0958; NOV958
For the molecule B2, in [6], the off-target hits was less than 10 hits. For the same molecule, in test [18], the binding result is “no binding (tested: not given on the sheet)”. The values for the dissociation constant Kd in [7] and in test [8] were roughly 0.1 nM and 0.1 nM, respectively. In addition, the RGA IC50 is greater than 25 µg/mL in test [19], greater than 25 µg/mL in [22], 0.04 µg/mL in test [15] and 25 µg/mL in test [16]. Also, the RGA max in [19] was 0.9; in test [22] it was 1.1; in test [15], 0.9; in test [16], 0.9. For the same molecule, the RGA min in test [19] was 1.1; in [22], 1.1; in test [15], 0.02; in test [16], 0.5. Besides, the selectivity window of BMP6 over this BMP (BRE-luc reporter) in [19] is greater than 500 fold; in test [21], no less than 500 fold; in test [11] it was no less than 500 fold. Also, the Signal over background in test [2] stood at 59; in test [3], 7; in [4], 1; in test [5] it was 32. Further, the “IC50 (read off the curve)” value in [9] is roughly 0.5 nM. In addition, in [20], the “fold selectivity for human BMP6 over human BMP7” value is greater than 500 fold. Further, the “BRE-luc reporter IC50 in Hep3B” value in test [10] amounted to 0.4 nM. In addition, the “IC50(ug/ml) BMP6 reporter” value in [13] amounted to 0.07 µg/mL. Besides, the “BRE-Luc RGA IC50” value in [14] was 0.26 nM. For the same molecule, the “RGA selectivity, hBMP6 over hBMP7” value in test [14] is roughly 1000 fold.

B3: Antibody 6 (antibody, human IgG1, lambda, V domains shown)
VH: QVQLVESGGGLVKPGGSLRLSCAASGFTFSSYVVHWVRQAPGKGLEWVGRTRHSDMGYATSYAAPVKGRFTISRDDSKNTLYLQMNSLKTEDTAVYYCARVERSKSGFDNWGQGTLVTVSS
VL: QSVLTQPPSVSGAPGQRVTISCTGSSSNIGAGYSVHWYQQLPGTAPKLLIYGQSERPSGVPDRFSGSKSGTSASLAITGLQAEDEADYYCQSWDSSQTLVVFGGGTKLTVLG
notes: germlined clone of NOV0798 (HCDR2-matured NOV0442_VL[Y49,G50,N51Q]); human IgG1; lead antibody; also called NOV0954; NOV954
As to B3, in [6], the off-target hits was less than 10 hits. The Kd is roughly 0.1 nM in test [7] and less than 0.1 nM in test [8]. Further, the Signal over background in test [1] worked out at 2; in test [2], 38; in test [3] it was 3; in [4], 1; in [5], 29. The “IC50 (read off the curve)” value in test [9] was roughly 0.5 nM. For the same molecule, the “selectivity window of BMP6 over this BMP (BRE-luc reporter)” value in test [21], in test [11] and in [12] was no less than 500 fold in each case. The “BRE-luc reporter IC50 in Hep3B” value in [10] stood at 0.4 nM. Besides, the “IC50(ug/ml) BMP6 reporter” value in test [13] turned out to be 0.08 µg/mL. Further, the “BRE-Luc RGA IC50” value in [14] worked out at 0.3 nM. In [14], the “RGA selectivity, hBMP6 over hBMP7” value is roughly 1000 fold. Moreover, the “RGA IC50” value in [22] was greater than 25 µg/mL; in test [15] it was 0.05 µg/mL; in [16], 25 µg/mL; in test [17], greater than 25 µg/mL. Also, the RGA max in [22] stood at 1; in test [15] it was 1; in test [16], 0.9; in test [17], 1. Moreover, the RGA min in test [22] is 0.9; in test [15] it was 0.02; in test [16], 0.5; in test [17], 1.

B4: Antibody 3 (antibody, human IgG1, lambda, V domains shown)
VH: QVQLVESGGGLVKPGGSLRLSCAASGFTFSSYVVHWVRQAPGKGLEWVGRIKDHKQGYTTAYAASVKGRFTISRDDSKNTLYLQMNSLKTEDTAVYYCARVERSKSGFDNWGQGTLVTVSS
VL: QSVLTQPPSVSGAPGQRVTISCTGSSSNIGAGYSVHWYQQLPGTAPKLLIYGSSERPSGVPDRFSGSKSGTSASLAITGLQAEDEADYYCQSWDSSQTLVVFGGGTKLTVLG
notes: germlined clone of NOV0800 (HCDR2-matured NOV0442_VL[Y49,G50,N51S]); human IgG1; back-up antibody; also called NOV0961; NOV961
Take B4: the Signal over background in [1] amounted to 1; in test [2], 48; in test [3], 2; in [4] it was 1; in test [5], 29. Besides, the “RGA IC50” value was greater than 25 µg/mL in [22], 0.08 µg/mL in [15], greater than 25 µg/mL in test [16] and greater than 25 µg/mL in test [17]. Also, the RGA max in test [22] was 0.9; in test [15] it was 0.9; in [16], 1; in [17], 1. Further, the RGA min came out at 0.8 in [22], 0.02 in [15], 0.8 in test [16] and 0.8 in [17].
